Positions count from the first letter of the chain named.
T1: human CD20 (human, UniProt P11836 1-297)
T1 sequence (looked up): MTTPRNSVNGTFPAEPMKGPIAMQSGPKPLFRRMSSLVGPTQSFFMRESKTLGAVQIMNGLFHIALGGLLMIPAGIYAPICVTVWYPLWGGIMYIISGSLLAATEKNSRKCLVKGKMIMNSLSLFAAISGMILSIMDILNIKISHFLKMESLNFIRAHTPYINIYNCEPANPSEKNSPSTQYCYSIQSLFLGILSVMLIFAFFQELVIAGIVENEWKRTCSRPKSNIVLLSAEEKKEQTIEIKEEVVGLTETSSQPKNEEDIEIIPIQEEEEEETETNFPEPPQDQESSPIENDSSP

B1: T0170117G03 (VHH)
VHH: EVQLVESGGGPVQAGGSLRLSCAASGRTYRGYSMGWFRQAPGKEREFVAAIVWSGGNTYYEDSVKGRFTISRDNAKNTMYLQMTSLKPEDSATYYCAAKIRPYIFKIAGQYDYWGQGTQVTVSS
notes: Monovalent anti-CD3 Nanobody, expressed in E. coli TG1 as triple Flag, His6-tagged protein; also called T0170PMP117G03; cluster A representative; not shown: C-terminal triple FLAG and His6 tag
B2: T0170075G11 (VHH)
VHH: B1 VHH with G16D, A40V, S54T, G55D, N74I, A75T, Q82H
notes: also called T0170PMP075G11; cluster A; not shown: C-terminal triple FLAG and His6 tag
B3: T017000036 (bispecific antibody)
chain: EVQLVESGGGPVQAGGSLRLSCAASGRTYRGYSMGWFRQAPGKEREFVAAIVWSGGNTYYEDSVKGRFTISRDNAKNTMYLQMTSLKPEDSATYYCAAKIRPYIFKIAGQYDYWGQGTLVTVSSGGGGSGGGGSGGGGSGGGGSGGGGSGGGGSGGGGSEVQLVESGGGLVQPGGSLRLSCTFSGGTFSSYTMGWFRQAPGKEREFVAEVRWGGVTTYSNSLKDRFSISEDSVKNAVYLQMNSLKPEDTAVYYCAAVRQMYMTVVPDYWGQGTLVTVSSGAADYKDHDGDYKDHDIDYKDDDDKGAAHHHHHH
notes: Bispecific Nanobody construct with tags, expressed in Pichia; also called T0170117G03-35GS-20CD019C07-FLAG3-HIS6; CD3xCD20 (cluster A)
B4: 20CD019C07 (VHH)
VHH: EVQLVESGGGLVQPGGSLRLSCTFSGGTFSSYTMGWFRQAPGKEREFVAEVRWGGVTTYSNSLKDRFSISEDSVKNAVYLQMNSLKPEDTAVYYCAAVRQMYMTVVPDYWGQGTLVTVSS
notes: also called the anti-CD20 Nanobody; human CD20 targeting Nanobody
B5: T017000053 (bispecific antibody)
chain: EVQLVESGGGLVQPGGSLRLSCTFSGGTFSSYTMGWFRQAPGKEREFVAEVRWGGVTTYSNSLKDRFSISEDSVKNAVYLQMNSLKPEDTAVYYCAAVRQMYMTVVPDYWGQGTLVTVSSGGGGSGGGGSGGGGSGGGGSGGGGSGGGGSGGGGSEVQLVESGGGLVQPGGSLRLSCAASGDIYKSFDMGWYRQAPGKQRDLVAVIGSRGNNRGRTNYADSVKGRFTISRDGTGNTVYLLMNKLRPEDTAIYYCNTAPLVAGRPWGRGTLVTVSSGAADYKDHDGDYKDHDIDYKDDDDKGAAHHHHHH
notes: Bispecific Nanobody construct with tags, expressed in Pichia; also called 20CD019C07-35GS-T0170060E11-FLAG3-HIS6; CD20xCD3 (cluster B)
B6: T017000062 (bispecific antibody)
chain: EVQLVESGGGLVQPGGSLRLSCTFSGGTFSSYTMGWFRQAPGKEREFVAEVRWGGVTTYSNSLKDRFSISEDSVKNAVYLQMNSLKPEDTAVYYCAAVRQMYMTVVPDYWGQGTLVTVSSGGGGSGGGGSGGGGSGGGGSGGGGSGGGGSGGGGSEVQLVESGGGPVQAGGSLRLSCAASGRTYRGYSMGWFRQAPGKEREFVAAIVWSGGNTYYEDSVKGRFTISRDNAKNTMYLQMTSLKPEDSATYYCAAKIRPYIFKIAGQYDYWGQGTLVTVSSGAADYKDHDGDYKDHDIDYKDDDDKGAAHHHHHH
notes: Bispecific Nanobody construct with tags, expressed in Pichia; also called 20CD019C07-35GS-T0170117G03-FLAG3-HIS6; CD20xCD3 (cluster A)

What was measured:
[1] = biological target: T2, human TCR/CD3 complex on purified primary human T cells (human); experiment: flow cytometry on purified primary human T cells
T2 construct: Natural complex on T cells isolated from buffy coats of healthy donors; also called hu T cells; purified primary T cells
T2 sequence (delta, as listed by the source limits assumed, chain 1 of 4): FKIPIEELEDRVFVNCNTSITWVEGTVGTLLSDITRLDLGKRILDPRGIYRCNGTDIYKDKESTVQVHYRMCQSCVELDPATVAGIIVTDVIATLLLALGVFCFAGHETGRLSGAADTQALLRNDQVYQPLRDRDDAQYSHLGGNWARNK
T2 sequence (gamma, as listed by the source limits assumed, chain 2 of 4): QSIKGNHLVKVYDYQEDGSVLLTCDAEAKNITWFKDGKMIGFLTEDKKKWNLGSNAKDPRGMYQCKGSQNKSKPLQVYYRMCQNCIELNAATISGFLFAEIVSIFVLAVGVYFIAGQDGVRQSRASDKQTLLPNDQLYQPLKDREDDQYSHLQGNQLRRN
T2 sequence (epsilon, as listed by the source limits assumed, chain 3 of 4): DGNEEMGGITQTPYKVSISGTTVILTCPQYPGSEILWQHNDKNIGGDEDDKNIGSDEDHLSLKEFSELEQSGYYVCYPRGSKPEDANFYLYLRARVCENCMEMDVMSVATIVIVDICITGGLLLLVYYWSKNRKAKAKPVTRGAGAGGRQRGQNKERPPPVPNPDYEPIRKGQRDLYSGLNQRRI
T2 sequence (zeta, as listed by the source limits assumed, chain 4 of 4): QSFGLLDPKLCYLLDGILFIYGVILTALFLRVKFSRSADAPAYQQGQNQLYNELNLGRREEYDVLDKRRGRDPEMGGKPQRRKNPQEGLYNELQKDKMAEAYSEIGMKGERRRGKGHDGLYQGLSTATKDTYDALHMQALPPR

[2] = biological target: T3, human CD3 expressed on HEK293H cells (human, UniProt P20963 22-164); experiment: flow cytometry on HEK293H cells expressing human CD3
T3 construct: also called HEK293H CD3; HEK293H human CD3
T3 sequence (chain, as listed by the source limits assumed, chain 1 of 4): as the sequence (delta, as listed by the source limits assumed, chain 1 of 4) above
T3 sequence (chain, as listed by the source limits assumed, chain 2 of 4): as the sequence (gamma, as listed by the source limits assumed, chain 2 of 4) above
T3 sequence (chain, as listed by the source limits assumed, chain 3 of 4): as the sequence (epsilon, as listed by the source limits assumed, chain 3 of 4) above
T3 sequence (P20963 22-164 limits assumed, chain 4 of 4): as the sequence (zeta, as listed by the source limits assumed, chain 4 of 4) above
Text: The parental HEK293H cell line was included as TCR/CD3 negative cell line.

[3] = biological target: T1, human CD20; experiment: cell-based or functional assay
[4] = biological target: T1, human CD20; experiment: cell-based or functional assay; remark: listed apart in the source
[5] = biological target: T1, human CD20; experiment: flow cytometry on human CD20 positive Ramos cells
[6] = biological target: T2, human TCR/CD3 complex on purified …; experiment: flow cytometry on primary human T cells
[7] = biological target: T1, human CD20; experiment: flow cytometry on Raji cells, MCF (Mean PE)
[8] = biological target: T1, human CD20; experiment: flow cytometry on Ramos cells, MCF (Mean PE)
[9] = biological target: T1, human CD20; experiment: cell-based or functional assay; remark: listed apart in the source
[10] = biological target: T1, human CD20; experiment: cell-based or functional assay; remark: listed apart in the source
[11] = biological target: T1, human CD20; experiment: cell-based or functional assay; remark: listed apart in the source

Row | Binder | % lysis (% dead cells at 500 nM Nanobody minus no Nanobody control), Ramos killing assay, E:T 10:1 [3] [%] | Average IC50 (M), flow cytometry based primary human T cell mediated Ramos killing assay, E:T 10:1 [3] [M] | Average IC50 (M), xCELLigence based human T cell mediated CHO-K1 CD20 killing assay, E:T 30:1, 44 h [4] [M] | EC50 [5] [nM] | EC50 [6] [nM] | EC50 (M) of IFN-γ secretion by human T cells (ELISA, 72 h) in the xCELLigence based CHO-K1 human CD20 killing assay [9] [M] | EC50 (M) (title: IC50), T cell dependent B-cell (Ramos) killing assay [10] | also measured
1 | B1 |  |  |  |  |  |  |  | EC50 [1]: 22 nM
2 | B2 |  |  |  |  |  |  |  | EC50 [2]: 84 nM
3 | B3 | 26 | 5.5e-09 | 1.04e-09 | 21 | 35 |  |  | 
4 | B4 |  |  |  |  |  |  |  | EC50 (read off the curve) [7]: ~20 nM; EC50 (read off the curve) [8]: ~9 nM
5 | B5 | 22 | 7e-09 | 2.81e-10 | 1.8 |  | 9.1e-10 | 1.8e-09 | 
6 | B6 | 22 | 3.9e-09 | 7.88e-10 | 1.9 | 89 | 6.2e-10 | 6.4e-10 | IC50 (M), flow cytometry based T cell mediated Ramos killing assay, E:T 1 [11]: 2.5e-08 M; IC50 (M), flow cytometry based T cell mediated Ramos killing assay, E:T 2 [11]: 7.1e-09 M; IC50 (M), flow cytometry based T cell mediated Ramos killing assay, E:T 5 [11]: 8.7e-09 M; IC50 (M), flow cytometry based T cell mediated Ramos killing assay, E:T 10 [11]: 7.3e-09 M

Source: patent US20250388672A1 (Ablynx, published 2025)
